Assay results from the Immune Epitope Database (IEDB).

Biological target: HLA-A*03:01
Experiment: IEDB peptide-MHC binding, purified MHC/competitive/radioactivity; ≥ and ≤ were set here for values at or beyond the usual limits of such assays
Settings: source organism: unidentified

IC50 [nM] | Sequence
4.8 | ALSPVLIPR
12300 | AVYEGHVSCVKG
13100 | GATCELPLQK
8480 | GFQNALLVR
819 | GITCPQVLIQK
666 | GSTCIYGGAPK
202 | GVVCPVSDILYK
14 | IISIVTGLK
0.78 | KISFPIIAK
960 | LDAGLKKQFYK
10000 | LNDRGGSVIK
1310 | NTCQDAAIVGYK
2180 | PSVGPVLGR
10000 | QDKVKTLTGK
18600 | QFLEENTNILK
2720 | QTALVEIIK
175 | RAAAPPLPR
56 | RAAPPPPPR
372 | RAVPGPPAR
25700 | RIKFSDDRVCKG
343 | RLADKSVLVCKG
238 | RSLTGILGK
2590 | RTGVPPTIR
1830 | RVFPSNVICKG
8740 | SLFSTSSKL
31 | STLTDSLVCGK
119 | SVRELNFTK

Biological target: HLA-B*27:05
Experiment: as above
Settings: source organism: unidentified

IC50 [nM] | Sequence
83 | AHKEIHQQL
5.3 | ARCGGALLAL
3170 | ARVKEVEEMCKG
16 | ERAGPLSGKKF
5760 | GKLCQHIIKR
32 | GRFEVGKKICLG
10000 | GRNKLLQSW
657 | GRVCSNRHGLIR
10000 | LKRDKLFEK
27600 | PKLLGPLSL
336 | PRGSGGIGL
466 | PRPRGGSDL
833 | RGLASPPPVR
108 | RRNDKQLCIG
1.6 | RRVSQGLLGK
24 | RRVYLEGRCVG
16 | RRYNGGVGRCQ
241 | TRLVLDPVR
1520 | TRSTGLLGVK
986 | VRSPGATASSL

Biological target: HLA-A*01:01
Experiment: as above
Settings: source organism: unidentified

IC50 [nM] | Sequence
32 | ADTDSPLRY
10000 | DKDGCMVEQY
10000 | EKPHSEAGTAF
30 | ETESQQIRY
201 | GCLDTAQRNLY
5130 | GLELSGCIVY
26600 | LVIDNGSGMCKG
1710 | PHSPALQPI

Biological target: HLA-B*07:02
Experiment: as above
Settings: source organism: unidentified

IC50 [nM] | Sequence
4.3 | APRRPTQGTVTF
98 | FPRVSTPLA
266 | GVWEEVGCAKG
33 | LGPRAAAAGAL
111 | LPPPARPPI
554 | LPRGGSVLVTCG
0.96 | NPRGARVIAL
11500 | PGREAVSKL
713 | PGRGARRLLALV
11300 | PKASSGSFSL
8490 | PLRDARVSDL
10000 | PSTLNVGTL
9210 | PVEKNTVEL
3230 | PVRPAAAAATAL
3.6 | RPRWGAAAS
367 | SPLAASKECAV
4590 | VPAQSRPCVG
10000 | WSVMDQDSL
